Laboratory results from patent US20200087367A1 (ACCELERON PHARMA, published 2020).

B8: BMP5 (ligand, human, UniProt P22003 317-454, looked up)
chain: AANKRKNQNRNKSSSHQDSSRMSSVGDYNTSEQKQACKKHELYVSFRDLGWQDWIIAPEGYAAFYCDGECSFPLNAHMNATNHAIVQTLVHLMFPDHVPKPCCAPTKLNAISVLYFDDSSNVILKKYRNMVVRSCGCH

Key:
[1] = target: T1, BMP9 (human, UniProt Q9UK05 320-429); assay: SPR, captured hENG-hFc, soluble BMP9; '-' = Binding undetectable
T1 construct: also called hBMP-9; hBMP9
T1 sequence (looked up): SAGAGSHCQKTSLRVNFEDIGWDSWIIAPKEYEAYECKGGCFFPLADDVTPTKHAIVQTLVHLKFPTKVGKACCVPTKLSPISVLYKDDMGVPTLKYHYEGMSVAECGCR
Protocol: (§1) SPR methodology was used to screen these hENG-hFc protein variants for high-affinity binding to human BMP9 and BMP10. In these experiments, captured hENG-hFc proteins were exposed to soluble BMP9 or BMP10 at 100 nM each.

[2] = target: T2, BMP10 (human, UniProt O95393 317-424); assay: SPR, captured hENG-hFc, soluble BMP10; '-' = Binding undetectable
T2 construct: also called hBMP-10; hBMP10
T2 sequence: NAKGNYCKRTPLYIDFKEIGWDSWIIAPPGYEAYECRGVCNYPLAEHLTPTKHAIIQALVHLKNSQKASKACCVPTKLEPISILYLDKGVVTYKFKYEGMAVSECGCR
Protocol: as §1

[3] = target: T2, BMP10; assay: SPR (Biacore), ligand amine-coupled to CM5 chip, Fc fusion injected
[4] = target: T1, BMP9; assay: as above
[5] = target: T3, BMP6 (human, UniProt P22004 382-513, limits assumed); assay: as above
T3 sequence (looked up): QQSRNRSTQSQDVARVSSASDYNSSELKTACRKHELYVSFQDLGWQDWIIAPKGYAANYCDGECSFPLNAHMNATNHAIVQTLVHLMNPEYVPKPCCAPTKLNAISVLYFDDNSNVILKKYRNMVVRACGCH

[6] = target: B8; assay: as above
[7] = target: T4, hENG(26-437)-hFc (human, UniProt P17813 26-437); assay: SPR ligand screen; '-' = Binding undetectable
T4 construct: HEK 293, purified; not shown: linker and human IgG1 Fc domain
T4 sequence: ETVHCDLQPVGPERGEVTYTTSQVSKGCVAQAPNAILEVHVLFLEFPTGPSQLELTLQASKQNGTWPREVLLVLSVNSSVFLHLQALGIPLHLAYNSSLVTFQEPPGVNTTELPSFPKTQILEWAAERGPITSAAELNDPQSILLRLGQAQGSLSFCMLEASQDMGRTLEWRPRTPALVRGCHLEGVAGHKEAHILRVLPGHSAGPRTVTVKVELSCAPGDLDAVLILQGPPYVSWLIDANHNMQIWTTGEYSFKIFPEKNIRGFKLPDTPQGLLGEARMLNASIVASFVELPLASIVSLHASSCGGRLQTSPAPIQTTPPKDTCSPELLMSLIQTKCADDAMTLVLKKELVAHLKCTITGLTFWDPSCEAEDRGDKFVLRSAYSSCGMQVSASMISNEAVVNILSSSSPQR

[8] = target: T5, hENG(26-586) (human, UniProt P17813 26-586); assay: SPR (Biacore), immobilized hENG(26-586), soluble ligand; '-' = binding undetectable
T5 construct: Bought protein, a human variant with no Fc domain; also called R&D Systems, catalog #1097-EN
T5 sequence: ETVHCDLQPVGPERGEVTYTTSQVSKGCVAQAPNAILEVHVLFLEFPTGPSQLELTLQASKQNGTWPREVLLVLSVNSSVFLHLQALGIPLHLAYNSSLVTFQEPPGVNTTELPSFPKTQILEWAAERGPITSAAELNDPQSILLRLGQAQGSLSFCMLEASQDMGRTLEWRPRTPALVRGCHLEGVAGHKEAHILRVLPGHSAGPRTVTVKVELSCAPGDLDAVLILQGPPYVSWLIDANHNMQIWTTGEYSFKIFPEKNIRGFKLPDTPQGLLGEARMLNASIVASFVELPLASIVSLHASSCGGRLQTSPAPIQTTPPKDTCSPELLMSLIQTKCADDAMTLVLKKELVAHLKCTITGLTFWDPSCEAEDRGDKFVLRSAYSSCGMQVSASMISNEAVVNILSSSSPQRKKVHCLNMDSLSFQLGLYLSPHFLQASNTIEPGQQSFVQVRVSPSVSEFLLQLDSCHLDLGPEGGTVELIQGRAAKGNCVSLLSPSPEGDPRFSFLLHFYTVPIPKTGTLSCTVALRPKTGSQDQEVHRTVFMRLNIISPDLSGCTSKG
Source text: Considered a co-receptor, ENG is widely thought to function by facilitating the binding of TGF-β1 and -3 to multi-protein complexes of type I and type II receptors. To investigate the possibility of direct ligand binding by isolated ENG, surface plasmon resonance (SPR) methodology (Biacore™ instrument) was used to screen for binding of captured proteins comprising the full-length extracellular domain of ENG to a variety of soluble human TGF-β family ligands.

[9] = target: T6, BMP10pro(22-315)-mFc (human, UniProt O95393 22-315); assay: SPR (Biacore), BMP10pro-Fc captured by anti-Fc antibody, ligand injected
T6 construct: also called mouse Fc equivalent construct; not shown: optional linker and mouse immunoglobulin G1 Fc domain
T6 sequence: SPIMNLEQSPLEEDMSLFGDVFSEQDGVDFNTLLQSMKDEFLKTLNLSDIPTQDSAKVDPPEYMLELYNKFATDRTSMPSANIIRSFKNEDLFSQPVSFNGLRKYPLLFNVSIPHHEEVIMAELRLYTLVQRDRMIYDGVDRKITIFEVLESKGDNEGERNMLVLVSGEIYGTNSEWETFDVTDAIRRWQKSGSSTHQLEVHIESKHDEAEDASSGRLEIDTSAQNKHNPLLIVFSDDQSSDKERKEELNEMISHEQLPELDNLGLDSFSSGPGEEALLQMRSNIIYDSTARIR
Protocol: (§2) The BMP10pro-Fc proteins were separately was captured onto the system using an anti-Fc antibody, and ligands were injected and allowed to flow over the captured receptor protein. […] The mouse Fc equivalent constructs behaved similarly. […] The affinity of BMP10pro(22-315)-hFc for BMP3b was not assessed.

[10] = target: T7, BMP10pro(22-312)-mFc (human, UniProt O95393 22-312); assay: as above
T7 construct: also called mouse Fc equivalent construct; not shown: optional linker and mouse immunoglobulin G1 Fc domain
T7 sequence: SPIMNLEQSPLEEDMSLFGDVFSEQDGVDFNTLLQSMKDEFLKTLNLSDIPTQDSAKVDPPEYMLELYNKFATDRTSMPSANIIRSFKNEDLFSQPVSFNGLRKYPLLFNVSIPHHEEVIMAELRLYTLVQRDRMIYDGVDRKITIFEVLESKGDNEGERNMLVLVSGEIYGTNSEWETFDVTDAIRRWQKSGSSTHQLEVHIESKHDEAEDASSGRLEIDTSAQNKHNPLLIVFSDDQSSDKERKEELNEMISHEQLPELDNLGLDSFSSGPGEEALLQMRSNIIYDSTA
Protocol: as §2

B1: hENG(360-437)-hFc (Fc fusion)
chain: QTKCADDAMTLVLKKELVAHLKCTITGLTFWDPSCEAEDRGDKFVLRSAYSSCGMQVSASMISNEAVVNILSSSSPQR
notes: Expressed in COS cells, not purified; not shown: linker and human IgG1 Fc domain
binding result [1]: no binding (tested: 100 nM)
binding result [2]: no binding (tested: 100 nM)

B2: ALK1-mFc (Fc fusion, mouse, UniProt Q61288 23-119, looked up)
chain: DLAKPSKLVNCTCESPHCKRPFCQGSWCTVVLVREQGRHPQVYRGCGSLNQELCLGRPTEFLNHHCCYRSFCNHNVSLMLEATQTPSEEPEVDAHLP
notes: extracellular domain; Mouse ALK1 fused to a murine Fc domain with a linker; also called mALK1-mFc; not shown: linker and murine Fc domain
binding result [3]: binds
binding result [4]: binds
binding result [5]: no binding
binding result [6]: no binding

B3: hENG(360-457)-hFc (Fc fusion)
chain: QTKCADDAMTLVLKKELVAHLKCTITGLTFWDPSCEAEDRGDKFVLRSAYSSCGMQVSASMISNEAVVNILSSSSPQRKKVHCLNMDSLSFQLGLYLS
notes: as for B1
binding result [1]: no binding (tested: 100 nM)
binding result [2]: no binding (tested: 100 nM)

B4: TGF-β3 (ligand, human, UniProt P10600 301-412, looked up)
chain: ALDTNYCFRNLEENCCVRPLYIDFRQDLGWKWVHEPKGYYANFCSGPCPYLRSADTTHSTVLGLYNTLNPEASASPCCVPQDLEPLTILYYVGRTPKVEQLSNMVVKSCKCS
notes: also called hTGF-β3
binding result [7]: no binding (tested: 50 nM)
binding result [8]: no binding (tested: 25 nM)

B5: hENG(258-346)-hFc (Fc fusion)
chain: YVSWLIDANHNMQIWTTGEYSFKIFPEKNIRGFKLPDTPQGLLGEARMLNASIVASFVELPLASIVSLHASSCGGRLQTSPAPIQTTPP
notes: HEK 293, purified; not shown: linker and human IgG1 Fc domain
binding result [1]: no binding (tested: 100 nM)
binding result [2]: no binding (tested: 100 nM)

B6: BMP7 (ligand, human, UniProt P18075 293-431, looked up)
chain: STGSKQRSQNRSKTPKNQEALRMANVAENSSSDQRQACKKHELYVSFRDLGWQDWIIAPEGYAAYYCEGECAFPLNSYMNATNHAIVQTLVHFINPETVPKPCCAPTQLNAISVLYFDDSSNVILKKYRNMVVRACGCH
notes: also called hBMP-7
binding result [7]: no binding (tested: 100 nM)
binding result [8]: no binding (tested: 25 nM)

B7: TGF-β2 (ligand, human, UniProt P61812 303-414, looked up)
chain: ALDAAYCFRNVQDNCCLRPLYIDFKRDLGWKWIHEPKGYNANFCAGACPYLWSSDTQHSRVLSLYNTINPEASASPCCVSQDLEPLTILYYIGKTPKIEQLSNMIVKSCKCS
notes: also called hTGF-β2
binding result [7]: no binding (tested: 100 nM)
binding result [8]: no binding (tested: 25 nM)

B8
binding result [9]: binds
binding result [10]: binds

B9: BMP2 (ligand, human, UniProt P12643 283-396, looked up)
chain: QAKHKQRKRLKSSCKRHPLYVDFSDVGWNDWIVAPPGYHAFYCHGECPFPLADHLNSTNHAIVQTLVNSVNSKIPKACCVPTELSAISMLYLDENEKVVLKNYQDMVVEGCGCR
notes: also called hBMP-2
binding result [7]: no binding (tested: 100 nM)
binding result [8]: no binding (tested: 25 nM)

B10: hBMP-2/7 (ligand, human)
chain 1: QAKHKQRKRLKSSCKRHPLYVDFSDVGWNDWIVAPPGYHAFYCHGECPFPLADHLNSTNHAIVQTLVNSVNSKIPKACCVPTELSAISMLYLDENEKVVLKNYQDMVVEGCGCR
chain 2: STGSKQRSQNRSKTPKNQEALRMANVAENSSSDQRQACKKHELYVSFRDLGWQDWIIAPEGYAAYYCEGECAFPLNSYMNATNHAIVQTLVHFINPETVPKPCCAPTQLNAISVLYFDDSSNVILKKYRNMVVRACGCH
binding result [7]: no binding (tested: 100 nM)
binding result [8]: no binding (tested: 25 nM)

B11: ActRIIB-mFc (Fc fusion, not shown: a dimerising Fc or GST)
chain: GRGEAETRECIYYNANWELERTNQSGLERCEGEQDKRLHCYASWRNSSGTIELVKKGCWLDDFNCYDRQECVATEENPQVYFCCCEGNFCNERFTHLPEAGGPEVTYEPPPTAPT
binding result [6]: binds

B12: activin A (ligand, human, UniProt P08476 311-426, looked up)
chain: GLECDGKVNICCKKQFFVSFKDIGWNDWIIAPSGYHANYCEGECPSHIAGTSGSSLSFHSTVINHYRMRGHSPFANLKSCCVPTKLRPMSMLYYDDGQNIIKKDIQNMIVEECGCS
notes: also called hActivin A
binding result [7]: no binding (tested: 100 nM)
binding result [8]: no binding (tested: 25 nM)

B13: ActRIIB-hFc (Fc fusion)
chain: GRGEAETRECIYYNANWELERTNQSGLERCEGEQDKRLHCYASWRNSSGTIELVKKGCWLDDFNCYDRQECVATEENPQVYFCCCEGNFCNERFTHLPEAGGPEVTYEPPPTAPTGGGTHTCPPCPAPELLGGPSVFLFPPKPKDTLMISRTPEVTCVVVDVSHEDPEVKFNWYVDGVEVHNAKTKPREEQYNSTYRVVSVLTVLHQDWLNGKEYKCKVSNKALPVPIEKTISKAKGQPREPQVYTLPPSREEMTKNQVSLTCLVKGFYPSDIAVEWESNGQPENNYKTTPPVLDSDGSFFLYSKLTVDKSRWQQGNVFSCSVMHEALHNHYTQKSLSLSPGK
notes: Extracellular domain of human ActRIIB, linker, human Fc
Kd [3]: 0.0173 nM
Kd [4]: 0.0335 nM
Kd [5]: 0.164 nM
Kd [6]: 2.92 nM
